Test results from patent publication US20240167070.

Experiments:
[1] = target: T1, model peptide 3, AIYRRGRLYRRDHV
T1 chain: AIYRRGRLYRRDHV

[2] = target: T2, model peptide 1, AIYRRGRLYRRNHV
T2 chain: AIYRRGRLYRRNHV

model peptide 2, …(OH)HV = target: T3, model peptide 2, …(OH)HV
T3 chain: AIYRRGRLYRRXHV

[3] = target: T4, model peptide 6, AIYRRGRLYRRDSL
T4 chain: AIYRRGRLYRRDSL

model peptide 5, …(OH)SL = target: T5, model peptide 5, …(OH)SL
T5 chain: AIYRRGRLYRRXSL

[4] = target: T6, model peptide 4, AIYRRGRLYRRNSL
T6 chain: AIYRRGRLYRRNSL

B1: butelase-1 (protein)
chain: VEGTRWAVLVAGSKGYVNYRHQADVCHAYQILKKGGLKDENIIVFMYDDIAYNESNPHPGVIINHPYGSDVYKGVPKDYVGEDINPPNFYAVLLANKSALTGTGSGKVLDSGPNDHVFIYYTDHGGAGVLGMPSKPYIAASDLNDVLKKKHASGTYKSIVFYVESCESGSMFDGLLPEDHNIYVMGASDTGESSWVTYCPLQHPSPPPEYDVCVGDLFSVAWLEDCDVHNLQTETFQQQYEVVKNKTIVALIEDGTHVVQYGDVGLSKQTLFVYMGTDPAN
For B1, the Km [1] was 630 µM, the Km [2] was 67.5 µM and the Km (model peptide 2, …(OH)HV) was 98.8 µM.

B2: VyPAL2 (protein)
chain: DSIGTRWAVLIAGSKGYHNYRHQADVCHMYQILRKGGVKDENIIVFMYDDIAYNESNPFPGIIINKPGGENVYKGVPKDYTGEDINNVNFLAAILGNKSAIIGGSGKVLDTSPNDHIFIYYADHGAPGKIGMPSKPYLYADDLVDTLKQKAATGTYKSMVFYVEACNAGSMFEGLLPEGTNIYAMAASNSTEGSWITYCPGTPDFPPEFDVCLGDLWSITFLEDCDAHNLRTETVHQQFELVKKKIAYASTVSQYGDIPISKDSLSVYM
In the case of B2, the Km [3] is reported as 2070 µM, the Km (model peptide 5, …(OH)SL) is reported as 120 µM and the Km [4] is reported as 42.5 µM.
